Experimental data reported in publication PMC6109231.

Biological target: heat shock protein 60 (HSP60) (human (endogenous in HEK293T)), P10809
Experiment: negative-stain EM, single-particle analysis; SEC fraction 4 (1.5 to 2 MDa) of HEK293T lysate, Superdex 200 in PBS pH 7.2 at 4°C; 2% uranyl acetate; raw micrographs, reference-free 2D class averages, 3D classification (RELION) and ab initio reconstruction (cryoSPARC); proteins identified by mass spectrometry of the fraction
Conditions: remark: other sources report otherwise

B1: heat shock protein 60 (HSP60), P10809 27-573 (natural protein)
chain: AKDVKFGADARALMLQGVDLLADAVAVTMGPKGRTVIIEQSWGSPKVTKDGVTVAKSIDLKDKYKNIGAKLVQDVANNTNEEAGDGTTTATVLARSIAKEGFEKISKGANPVEIRRGVMLAVDAVIAELKKQSKPVTTPEEIAQVATISANGDKEIGNIISDAMKKVGRKGVITVKDGKTLNDELEIIEGMKFDRGYISPYFINTSKGQKCEFQDAYVLLSEKKISSIQSIVPALEIANAHRKPLVIIAEDVDGEALSTLVLNRLKVGLQVVAVKAPGFGDNRKNQLKDMAIATGGAVFGEEGLTLNLEDVQPHDLGKVGEVIVTKDDAMLLKGKGDKAQIEKRIQEIIEQLDVTTSEYEKEKLNERLAKLSDGVAVLKVGGTSDVEVNEKKDRVTDALNATRAAVEEGIVLGGGCALLRCIPALDSLTPANEDQKIGIEIIKRTLKIPAMTIAKNAGVEGSLIVEKIMQSSSEVGYDAMAGDFVNMVEKGIIDPTKVVRTALLDAAGVASLLTTAEVVVTEIPKEEKDPGMGAMGGMGGGMGGGMF
stoichiometry N: 7
